{
  "source": "the RNAGym collection of RNA variant scans (doi:10.1093/molbev/msab373)",
  "parents": {"B1": {"name": "Azoarcus group I ribozyme (parent)", "chain": "GUGCCUUGCGCCGGGAAACCACGCAAGGGAUGGUGUCAAAUUCGGCGAAACCUAAGCGCCCGCCCGGGCGUAUGGCAACGCCGAGCCAAGCUUCGGCGCCUGCGCCGAUGAAGGUGUAGAGACUAGACGGCACCCACCUAAGGCAAACGCUAUGGUGAAGGCAUAGUCCAGGGAGUGGCGAAAGUCACACAAACCGG"}},
  "data": [
    {"variants_of": "B1", "test": "reverse-splicing fitness (ratio to wild type); higher = more active; in vitro selection; Mg2+ level not given", "method_in_brief": "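An in vitro group I ribozyme library with randomized positions was T7-transcribed and gel-purified. In triplicate, 10 pmol RNA in EPPS pH 7.5 was reacted with 50 pmoles of a 30-nt RNA substrate for 1 h at 37 °C across several added MgCl2 levels (1–48 mM), then stopped with EDTA. Products were reverse transcribed from a substrate-complementary primer, PCR-amplified and sequenced (HiSeq 4000). Fitness is a variant's read proportion after selection over that before, normalised to wild type.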", "values": [
      {"variant": "C82A A111C A120C A145U C169A", "reverse-splicing fitness": 0.00864},
      {"variant": "C82A A111C A120C A145U C169G", "reverse-splicing fitness": 0.0102},
      {"variant": "C82A A111C A120C A145U C169U", "reverse-splicing fitness": 0.0133},
      {"variant": "C82A A111C A120C C150A U176A", "reverse-splicing fitness": 0.0118},
      {"variant": "C82A A111C A120C C150A U176G", "reverse-splicing fitness": 0.00759},
      {"variant": "C82A A111C A120C C150A U176C", "reverse-splicing fitness": 0.0178},
      {"variant": "C82A A111C A120G A145C C150A C169G U176C", "reverse-splicing fitness": 0.0145},
      {"variant": "C82A A111C A120G A145C C150A C169G U176A", "reverse-splicing fitness": 0.0253},
      {"variant": "C82A A111C A120G A145C C150A C169G U176G", "reverse-splicing fitness": 0.00557},
      {"variant": "C82A A111C A120C C150G C169G U176C", "reverse-splicing fitness": 0.00606},
      {"variant": "C82A A111C A120C C150G C169G U176A", "reverse-splicing fitness": 0.00786},
      {"variant": "C82A A111C A120C C150G C169G U176G", "reverse-splicing fitness": 0.00646},
      {"variant": "C82A A111C A120G C169A", "reverse-splicing fitness": 0.0095},
      {"variant": "C82A A111C A120G A145G C150A C169A U176C", "reverse-splicing fitness": 0.0231},
      {"variant": "C82A A111C A120G A145G C150A C169A U176G", "reverse-splicing fitness": 0.00667},
      {"variant": "C82A A111C A120G A145G C150A C169A U176A", "reverse-splicing fitness": 0.0181},
      {"variant": "C82A A111C A120C A145U C150U U176A", "reverse-splicing fitness": 0.0128},
      {"variant": "C82A A111C A120C A145U C150U U176C", "reverse-splicing fitness": 0.0187},
      {"variant": "C82A A111C A120C A145U C150U U176G", "reverse-splicing fitness": 0.00695},
      {"variant": "C82A A111C A120G A145G C150U C169G U176G", "reverse-splicing fitness": 0.00582},
      {"variant": "C82A A111C A120G A145G C150U C169G U176A", "reverse-splicing fitness": 0.0123},
      {"variant": "C82A A111C A120G A145G C150U C169G U176C", "reverse-splicing fitness": 0.0182},
      {"variant": "C82A A111C A120G A145G C150U U176G", "reverse-splicing fitness": 0.00706},
      {"variant": "C82A A111C A120G A145G C150U U176C", "reverse-splicing fitness": 0.0186},
      {"variant": "C82A A111C A120G A145G C150U U176A", "reverse-splicing fitness": 0.00883},
      {"variant": "C82A A111C A120G A145G C150G C169A", "reverse-splicing fitness": 0.00875},
      {"variant": "C82A A111C A120G A145G C150G C169G", "reverse-splicing fitness": 0.00706},
      {"variant": "C82A A111C A120G A145G C150G C169U", "reverse-splicing fitness": 0.00877},
      {"variant": "C82A A111C A120C C150U C169U", "reverse-splicing fitness": 0.0115},
      {"variant": "C82A A111C A120C C150U C169A", "reverse-splicing fitness": 0.0121},
      {"variant": "C82A A111C A120C C150U C169G", "reverse-splicing fitness": 0.00849},
      {"variant": "C82A A111C A120G A145U C150G C169G U176G", "reverse-splicing fitness": 0.00527},
      {"variant": "C82A A111C A120G A145U C150G C169G U176A", "reverse-splicing fitness": 0.00626},
      {"variant": "C82A A111C A120G A145U C150G C169G U176C", "reverse-splicing fitness": 0.00484},
      {"variant": "C82A A111C A120G A145C U176A", "reverse-splicing fitness": 0.0123},
      {"variant": "C82A A111C A120G A145C U176C", "reverse-splicing fitness": 0.0134},
      {"variant": "C82A A111C A120G A145C U176G", "reverse-splicing fitness": 0.00486},
      {"variant": "C82A A111C A120G C150U C169U", "reverse-splicing fitness": 0.00806},
      {"variant": "C82A A111C A120G C150U C169G", "reverse-splicing fitness": 0.00891},
      {"variant": "C82A A111C A120G C150U C169A", "reverse-splicing fitness": 0.00973},
      {"variant": "C82A A111C A120C C150A C169U U176G", "reverse-splicing fitness": 0.00868},
      {"variant": "C82A A111C A120C C150A C169U U176A", "reverse-splicing fitness": 0.0173},
      {"variant": "C82A A111C A120C C150A C169U U176C", "reverse-splicing fitness": 0.015},
      {"variant": "C82A A111C A120C C169A U176G", "reverse-splicing fitness": 0.00712},
      {"variant": "C82A A111C A120C C169A U176C", "reverse-splicing fitness": 0.0179},
      {"variant": "C82A A111C A120C C169A U176A", "reverse-splicing fitness": 0.0163},
      {"variant": "C82A A111C A120G C150A C169U U176C", "reverse-splicing fitness": 0.018},
      {"variant": "C82A A111C A120G C150A C169U U176A", "reverse-splicing fitness": 0.018},
      {"variant": "C82A A111C A120G C150A C169U U176G", "reverse-splicing fitness": 0.00682},
      {"variant": "C82A A111C A120C C169A", "reverse-splicing fitness": 0.00922},
      {"variant": "C82A A111C A120C C169U", "reverse-splicing fitness": 0.0124},
      {"variant": "C82A A111C A120C C169G", "reverse-splicing fitness": 0.0083},
      {"variant": "C82A A111C A120G C150A C169G U176A", "reverse-splicing fitness": 0.0187},
      {"variant": "C82A A111C A120G C150A C169G U176G", "reverse-splicing fitness": 0.00735},
      {"variant": "C82A A111C A120G C150A C169G U176C", "reverse-splicing fitness": 0.0234},
      {"variant": "C82A A111C A120G A145C C150G C169A U176C", "reverse-splicing fitness": 0.00612},
      {"variant": "C82A A111C A120G A145C C150G C169A U176A", "reverse-splicing fitness": 0.00786},
      {"variant": "C82A A111C A120G A145C C150G C169A U176G", "reverse-splicing fitness": 0.00531},
      {"variant": "C82A A111C A120G A145G C150A C169U U176C", "reverse-splicing fitness": 0.0139},
      {"variant": "C82A A111C A120G A145G C150A C169U U176G", "reverse-splicing fitness": 0.00632},
      {"variant": "C82A A111C A120G A145G C150A C169U U176A", "reverse-splicing fitness": 0.0154},
      {"variant": "C82A A111C A120G A145U", "reverse-splicing fitness": 0.0152},
      {"variant": "C82A A111C A120G A145C", "reverse-splicing fitness": 0.0129},
      {"variant": "C82A A111C A120G A145G", "reverse-splicing fitness": 0.0153},
      {"variant": "C82A A111C A120G A145U C150A C169G U176G", "reverse-splicing fitness": 0.00576},
      {"variant": "C82A A111C A120G A145U C150A C169G U176A", "reverse-splicing fitness": 0.0138},
      {"variant": "C82A A111C A120G A145U C150A C169G U176C", "reverse-splicing fitness": 0.0156},
      {"variant": "C82A A111C A120C C150G C169A U176A", "reverse-splicing fitness": 0.00991},
      {"variant": "C82A A111C A120C C150G C169A U176C", "reverse-splicing fitness": 0.0121},
      {"variant": "C82A A111C A120C C150G C169A U176G", "reverse-splicing fitness": 0.00778},
      {"variant": "C82A A111C A120G A145C C150A U176A", "reverse-splicing fitness": 0.0103},
      {"variant": "C82A A111C A120G A145C C150A U176G", "reverse-splicing fitness": 0.00559},
      {"variant": "C82A A111C A120G A145C C150A U176C", "reverse-splicing fitness": 0.0105},
      {"variant": "C82A A111C A120C A145U C150U C169A U176C", "reverse-splicing fitness": 0.0129},
      {"variant": "C82A A111C A120C A145U C150U C169A U176G", "reverse-splicing fitness": 0.00742},
      {"variant": "C82A A111C A120G C150G C169U U176C", "reverse-splicing fitness": 0.012},
      {"variant": "C82A A111C A120G C150G C169U U176G", "reverse-splicing fitness": 0.00579},
      {"variant": "C82A A111C A120G C150G C169U U176A", "reverse-splicing fitness": 0.00801},
      {"variant": "C82A A111C A120G A145C C150A C169U U176A", "reverse-splicing fitness": 0.0142},
      {"variant": "C82A A111C A120G A145C C150A C169U U176C", "reverse-splicing fitness": 0.00893},
      {"variant": "C82A A111C A120G A145C C150A C169U U176G", "reverse-splicing fitness": 0.00495},
      {"variant": "C82A A111C A120G A145C C150U U176G", "reverse-splicing fitness": 0.00502},
      {"variant": "C82A A111C A120G A145C C150U U176A", "reverse-splicing fitness": 0.00894}
    ]}
  ]
}
